This assay concerns the target viral gp41 (HIV-1 transmembrane envelope protein) of HIV-1IIIB (HIV-1IIIB) (UniProt P04578). Briefly: cell-based or functional assay.
In turn, “DP107 (synthetic peptide, residues 558 to 595 of HIV-1LAI gp41)” showed a Cell fusion (IC90) of 1 µM and an HIV infectivity (IC90) of 1 µM.

As to “DP178 (synthetic peptide, amino acids 638 to 673 of HIV-1LAI gp41)”, the Cell fusion (IC90) worked out at 0.001 µM and the HIV infectivity (IC90) worked out at 0.08 µM.

“M41 (maltose binding protein fusion of the gp41 ectodomain, residues 540-686) (from UniProt P0AEX9 27-392; P03377 540-686)” yielded a Cell fusion (IC90) of over 50 µM and an HIV infectivity (IC90) of over 16 µM.

Substance “M41-P (M41 with an Ile to Pro mutation at position 578) (from UniProt P0AEX9 27-392; P03377 540-686)” gave a Cell fusion (IC90) of 0.083 µM and an HIV infectivity (IC90) of 0.066 µM.

Substance “M41-PΔ178 (M41-P from which the DP-178 region has been deleted; gp41 residues 540-642 with Ile578Pro) (from UniProt P03377 540-642)” displayed a Cell fusion (IC90) of over 50 µM and an HIV infectivity (IC90) of over 8 µM.
